Results on 31 molecules are retold here after patent publication US20250026849A1 (ARCELLX, published 2025).

T1: CD123 (Homo sapiens (Human), UniProt P26951 19-305, limits assumed)
T1 construct: The CD123 construct used in the ELISA is not described; also called CD123-Signal
T1 sequence: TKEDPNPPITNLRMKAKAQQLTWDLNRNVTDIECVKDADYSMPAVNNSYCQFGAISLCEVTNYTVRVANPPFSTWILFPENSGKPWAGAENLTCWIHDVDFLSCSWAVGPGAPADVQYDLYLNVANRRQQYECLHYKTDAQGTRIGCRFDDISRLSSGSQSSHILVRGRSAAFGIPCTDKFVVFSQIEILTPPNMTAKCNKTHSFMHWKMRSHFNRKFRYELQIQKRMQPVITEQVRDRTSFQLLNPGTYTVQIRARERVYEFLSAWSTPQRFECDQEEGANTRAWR

B1: D domain of SEQ ID NO: 557 (designed binder)
chain: MGSWDFFKYDLANINEWLEALGGSEAELADFEYGIADFELWLQDYKGKGNPEVEALRKEAAAIRDELQAYRHN
B2: D domain of SEQ ID NO: 565 (designed binder)
chain: MGSWFEFKWTLALIKQELEALGGSEAELADFEQEIAEFEWWLQTYKGKGNPEVEALRKEAAAIRDELQAYRHN
B3: D domain of SEQ ID NO: 555 (designed binder)
chain: MGSWWDFKDWLAEIKHDLEALGGSEAELALFESEIADFEFGLQWYKGKGNPEVEALRKEAAAIRDELQAYRHN
B4: D domain of SEQ ID NO: 571 (designed binder)
chain: MGSWYEFDMRLDAIWERLTALGGSEAELADFEQYIAEFERQLQDYKGKGNPEVEALFDEAWAIEDELYAYRHN
B5: D domain of SEQ ID NO: 564 (designed binder)
chain: MGSWTEFKGELAEIKWILEALGGSEAELAFFEDEIAAFEWDLQKYKGKGNPEVEALRKEAAAIRDELQAYRHN
B6: D domain of SEQ ID NO: 560 (designed binder)
chain: MGSWVVFKQDLADINHQLEALGGSEAELAWFEWEIADFEWELQHYKGKGNPEVEALRKEAAAIRDELQAYRHN
B7: D domain of SEQ ID NO: 567 (designed binder)
chain: MGSWAEFKQRLAAIKTRLEALGGSEAELAAFEWEIVAFFSELFAYKGKGNPEVEALRDEAIAIETELVAYRHN
B8: D domain of SEQ ID NO: 556 (designed binder)
chain: MGSWDEFKEDLAHIKTDLEALGGSEAELALFEDEIADFEMYLQHYKGKGNPEVEALRKEAAAIRDELQAYRHN
B9: D domain of SEQ ID NO: 578 (designed binder)
chain: MGSWYEFDHRLEAIYDRLWALGGSEAELAFFEFDIADFEWDLQSYKGKGNPEVEALFDEAAAIGHELLAYRHN
B10: D domain of SEQ ID NO: 559 (designed binder)
chain: MGSWAEFKHDLADIKRELEALGGSEAELAWFELSIAFFEDELQHYKGKGNPEVEALRKEAAAIRDELQAYRHN
B11: D domain of SEQ ID NO: 572 (designed binder)
chain: MGSWSEFDSRLDAIAYRLFALGGSEAELAQFEWIIADFEEDLQMYKGKGNPEVEALFSEAYAIEIELNAYRHN
B12: D domain of SEQ ID NO: 577 (designed binder)
chain: MGSWEEFDKRLDAITRRLMALGGSEAELAEFESTIAWFEWDLQEYKGKGNPEVEALDWEAYAIDYELGAYRHN
B13: D domain of SEQ ID NO: 576 (designed binder)
chain: MGSWEEFDVRLDAIFNRLWALGGSEAELAEFEFDIAWFEMDLQEYKGKGNPEVEALFDEAEAITNELVAYRHN
B14: D domain of SEQ ID NO: 581 (designed binder)
chain: MGSWTEFDDRLFAIYWRLDALGGSEAELAWFEEVIAEFENDLQVYKGKGNPEVEALDDEAHAISIELEAYRHN
B15: D domain of SEQ ID NO: 570 (designed binder)
chain: MGSWYEFDHRLDAIYQRLWALGGSEAELAEFEYGIAEFEEYLQDYKGKGNPEVEALISEAWAIEWELSAYRHN
B16: D domain of SEQ ID NO: 582 (designed binder)
chain: MGSWSEFDQRLEAIWNRLDALGGSEAELADFEREIAYFENQLQWYKGKGNPEVEALNNEAFAIVDELGAYRHN
B17: D domain of SEQ ID NO: 574 (designed binder)
chain: MGSWFEFDERLDAIGSRLTALGGSEAELASFEFYIADFEEWLQQYKGKGNPEVEALEWEAFAIDEELGAYRHN
B18: D domain of SEQ ID NO: 573 (designed binder)
chain: MGSWYEFDDRLDAIAYRLNALGGSEAELAWFEWEIAEFELDLQWYKGKGNPEVEALVWEADAIEWELEAYRHN
B19: D domain of SEQ ID NO: 561 (designed binder)
chain: MGSWFQFKEFLAMITHNLEALGGSEAELAEFEHDIALFESELQQYKGKGNPEVEALRKEAAAIRDELQAYRHN
B20: D domain of SEQ ID NO: 583 (designed binder)
chain: MGSWYEFDERLWAIWERLDALGGSEAELAHFEWVIADFENDLQWYKGKGNPEVEALEFEAEAIVTELHAYRHN
B21: D domain of SEQ ID NO: 575 (designed binder)
chain: MGSWEEFDQRLDAIDVRLYALGGSEAELAEFEFDIAAFEEWLQLYKGKGNPEVEALNMEAFAITDELCAYRHN
B22: D domain of SEQ ID NO: 584 (designed binder)
chain: MGSWMEFDYRLEAIWMRLIALGGSEAELADFESSIADFEHHLQSYKGKGNPEVEALEWEAFAIGVELDAYRHN
B23: D domain of SEQ ID NO: 566 (designed binder)
chain: MGSWAEFKQRLAAIKTRLEALGGSEAELAAFMDEIMAFEWELWAYKGKGNPEVEALMNEAFAIDVELYAYRHN
B24: D domain of SEQ ID NO: 580 (designed binder)
chain: MGSWVEFDDRLDAIWERLDALGGSEAELAWFEEQIAVFEHQLQDYKGKGNPEVEALNQEAEAIDLELKAYRHN
B25: D domain of SEQ ID NO: 562 (designed binder)
chain: MGSWHWFKEDLAMITDVLEALGGSEAELAAFESEIAVFEADLQYYKGKGNPEVEALRKEAAAIRDELQAYRHN
B26: D domain of SEQ ID NO: 569 (designed binder)
chain: MGSWWEFQFRLYAIDQRLLALGGSEAELAEFEQDIADFEWMLQDYKGKGNPEVEALMLEADAIEAELKAYRHN
B27: D domain of SEQ ID NO: 563 (designed binder)
chain: MGSWSWFQWDLAGIKDHLEALGGSEAELAEFESEIAYFEDELQWYKGKGNPEVEALRKEAAAIRDELQAYRHN
B28: D domain of SEQ ID NO: 568 (designed binder)
chain: MGSWWEFDHRLTAIDTRLQALGGSEAELAEFESSIAEFEWWLQDYKGKGNPEVEALFAEAEAIYVELDAYRHN
B29: D domain of SEQ ID NO: 558 (designed binder)
chain: MGSWYQFKDDLAHIKHLLEALGGSEAELAVFEYIIADFESFLQIYKGKGNPEVEALRKEAAAIRDELQAYRHN
B30: D domain of SEQ ID NO: 585 (designed binder)
chain: MGSWYEFESRLEAIWWRLEALGGSEAELAQFEQYIADFEQHLQWYKGKGNPEVEALDWEADAIWLELQAYRHN
B31: D domain of SEQ ID NO: 579 (designed binder)
chain: MGSWNEFDDRLLAIWGRLDALGGSEAELAFFEEQIAGFEDELQWYKGKGNPEVEALDQEAEAIEKELWAYRHN

In this assay the target is T1, CD123. Description: ELISA. On the set-up: unit not given here.
B1 came in with an ELISA_avg of 5.5.

B2 yielded an ELISA_avg of 4.9.

B3 gave an ELISA_avg of 4.2.

Molecule B4 registered an ELISA_avg of 13.7.

B5 gave an ELISA_avg of 8.2.

The molecule B6 registered an ELISA_avg of 3.6.

As to B7, the ELISA_avg was determined as 3.6.

Regarding B8, the ELISA_avg is 6.3.

B9 came in with an ELISA_avg of 4.5.

On to B10, for which the ELISA_avg stood at 3.3.

In the case of B11, the ELISA_avg amounted to 4.3.

On to B12, for which the ELISA_avg amounted to 4.5.

With B13, the ELISA_avg was determined as 4.7.

In the case of B14, the ELISA_avg is 6.4.

B15: the ELISA_avg was 4.6.

Consider B16, for which the ELISA_avg worked out at 3.4.

With B17, the ELISA_avg stood at 3.8.

On to B18, for which the ELISA_avg turned out to be 4.6.

Take B19: the ELISA_avg amounted to 3.1.

The molecule B20 returned an ELISA_avg of 3.6.

In turn, B21 showed an ELISA_avg of 3.6.

The molecule B22 returned an ELISA_avg of 3.1.

B23: the ELISA_avg amounted to 3.4.

Regarding B24, the ELISA_avg came out at 5.

Molecule B25 came in with an ELISA_avg of 5.2.

Consider B26, for which the ELISA_avg came out at 3.1.

Molecule B27 had an ELISA_avg of 12.9.

The molecule B28 showed an ELISA_avg of 4.3.

For the molecule B29, the ELISA_avg came to 4.

For the molecule B30, the ELISA_avg worked out at 4.4.

For the molecule B31, the ELISA_avg worked out at 4.1.
